# Patent publication US20120064110A1
# *: point of attachment. NH(propargyl) = C#CCN*
# Assay: Circular dichroism measurement of peptide secondary structure
# Format: physicochemical
# Details: aqueous environments; 208 nm and 222 nm signal; FIG. 1 and FIG. 2
row,Substance,α-helical structure content by circular dichroism
1,Acetyl-AADAADKEAAQKAIDAATNAVNAAIEAANAAGG-NHCH2CCH (Ac-AADAADKEAAQKAIDAATNAVNAAIEAANAAGG-{NH(propargyl)}; SMILES C#CCNC(=O)CNC(=O)CNC(=O)[C@H](C)NC(=O)[C@H](C)NC(=O)[C@H](CC(N)=O)NC(=O)[C@H](C)NC(=O)[C@H](C)NC(=O)[C@H](CCC(=O)O)NC(=O)[C@@H](NC(=O)[C@H](C)NC(=O)[C@H](C)NC(=O)[C@H](CC(N)=O)NC(=O)[C@@H](NC(=O)[C@H](C)NC(=O)[C@H](CC(N)=O)NC(=O)[C@@H](NC(=O)[C@H](C)NC(=O)[C@H](C)NC(=O)[C@H](CC(=O)O)NC(=O)[C@@H](NC(=O)[C@H](C)NC(=O)[C@H](CCCCN)NC(=O)[C@H](CCC(N)=O)NC(=O)[C@H](C)NC(=O)[C@H](C)NC(=O)[C@H](CCC(=O)O)NC(=O)[C@H](CCCCN)NC(=O)[C@H](CC(=O)O)NC(=O)[C@H](C)NC(=O)[C@H](C)NC(=O)[C@H](CC(=O)O)NC(=O)[C@H](C)NC(=O)[C@H](C)NC(C)=O)[C@@H](C)CC)[C@@H](C)O)C(C)C)[C@@H](C)CC) [HA54.1],More significant improvement of the α-helical content
2,Acetyl-AADAADKEAAQKALDAATNALNAAIEAANAAGG-NHCH2CCH (Ac-AADAADKEAAQKALDAATNALNAAIEAANAAGG-{NH(propargyl)}; SMILES C#CCNC(=O)CNC(=O)CNC(=O)[C@H](C)NC(=O)[C@H](C)NC(=O)[C@H](CC(N)=O)NC(=O)[C@H](C)NC(=O)[C@H](C)NC(=O)[C@H](CCC(=O)O)NC(=O)[C@@H](NC(=O)[C@H](C)NC(=O)[C@H](C)NC(=O)[C@H](CC(N)=O)NC(=O)[C@H](CC(C)C)NC(=O)[C@H](C)NC(=O)[C@H](CC(N)=O)NC(=O)[C@@H](NC(=O)[C@H](C)NC(=O)[C@H](C)NC(=O)[C@H](CC(=O)O)NC(=O)[C@H](CC(C)C)NC(=O)[C@H](C)NC(=O)[C@H](CCCCN)NC(=O)[C@H](CCC(N)=O)NC(=O)[C@H](C)NC(=O)[C@H](C)NC(=O)[C@H](CCC(=O)O)NC(=O)[C@H](CCCCN)NC(=O)[C@H](CC(=O)O)NC(=O)[C@H](C)NC(=O)[C@H](C)NC(=O)[C@H](CC(=O)O)NC(=O)[C@H](C)NC(=O)[C@H](C)NC(C)=O)[C@@H](C)O)[C@@H](C)CC) [SEQHAS],More significant improvement of the α-helical content
3,Acetyl-AADAADKEAKQKAIDAATNAVNSAIEAANKAGG-NHCH2CCH (Ac-AADAADKEAKQKAIDAATNAVNSAIEAANKAGG-{NH(propargyl)}; SMILES C#CCNC(=O)CNC(=O)CNC(=O)[C@H](C)NC(=O)[C@H](CCCCN)NC(=O)[C@H](CC(N)=O)NC(=O)[C@H](C)NC(=O)[C@H](C)NC(=O)[C@H](CCC(=O)O)NC(=O)[C@@H](NC(=O)[C@H](C)NC(=O)[C@H](CO)NC(=O)[C@H](CC(N)=O)NC(=O)[C@@H](NC(=O)[C@H](C)NC(=O)[C@H](CC(N)=O)NC(=O)[C@@H](NC(=O)[C@H](C)NC(=O)[C@H](C)NC(=O)[C@H](CC(=O)O)NC(=O)[C@@H](NC(=O)[C@H](C)NC(=O)[C@H](CCCCN)NC(=O)[C@H](CCC(N)=O)NC(=O)[C@H](CCCCN)NC(=O)[C@H](C)NC(=O)[C@H](CCC(=O)O)NC(=O)[C@H](CCCCN)NC(=O)[C@H](CC(=O)O)NC(=O)[C@H](C)NC(=O)[C@H](C)NC(=O)[C@H](CC(=O)O)NC(=O)[C@H](C)NC(=O)[C@H](C)NC(C)=O)[C@@H](C)CC)[C@@H](C)O)C(C)C)[C@@H](C)CC) [HA54.4],More significant improvement of the α-helical content
4,Acetyl-Ala-Ala-Asp-Lys-Ala-Ser-Thr-Gln-Ala-Ala-Ile-Asp-Gly-Ala-Thr-Asn-Ala-Val-Asn-Ser-Ala-Ile-Glu-Ala-Gly-Gly-NHCH2CCH (Ac-AADKASTQAAIDGATNAVNSAIEAGG-{NH(propargyl)}; SMILES C#CCNC(=O)CNC(=O)CNC(=O)[C@H](C)NC(=O)[C@H](CCC(=O)O)NC(=O)[C@@H](NC(=O)[C@H](C)NC(=O)[C@H](CO)NC(=O)[C@H](CC(N)=O)NC(=O)[C@@H](NC(=O)[C@H](C)NC(=O)[C@H](CC(N)=O)NC(=O)[C@@H](NC(=O)[C@H](C)NC(=O)CNC(=O)[C@H](CC(=O)O)NC(=O)[C@@H](NC(=O)[C@H](C)NC(=O)[C@H](C)NC(=O)[C@H](CCC(N)=O)NC(=O)[C@@H](NC(=O)[C@H](CO)NC(=O)[C@H](C)NC(=O)[C@H](CCCCN)NC(=O)[C@H](CC(=O)O)NC(=O)[C@H](C)NC(=O)[C@H](C)NC(C)=O)[C@@H](C)O)[C@@H](C)CC)[C@@H](C)O)C(C)C)[C@@H](C)CC) [A2],less optimal for forming α-helical structures in aqueous environments
